# From doi:10.1101/390104 (bioRxiv, 2018)
# Molecular target: the molecule itself
# Assay: NMR
row,Binder,binding result
1,"wild type HdeA (natural protein, E. coli, UniProt P0AES9 22-110, looked up) ADAQKAADNKKPVNSWTCEDFLAVDESFQPTAVGFAEALNNKDKPEDAVLDVQGIATVTPAIVQACTQDKQANFKDKVKGEWDKIKKDM",binds

# Molecular target: T1, MalE (E. coli, UniProt P0AEX9 27-396 = MBP)
# Assay: ITC
row,Binder,stoichiometry N
1,"wild type HdeA (natural protein, E. coli, UniProt P0AES9 22-110, looked up) ADAQKAADNKKPVNSWTCEDFLAVDESFQPTAVGFAEALNNKDKPEDAVLDVQGIATVTPAIVQACTQDKQANFKDKVKGEWDKIKKDM",~0.5

# Molecular target: T1, MalE
# Assay: 19F NMR
row,Binder,binding result
1,"HdeA mutant with 19F probe incorporated at site 28 (natural protein, 5-fluorotryptophan at 28) ADAQKAADNKKPVNSFTCEDFLAVDESWQPTAVGFAEALNNKDKPEDAVLDVQGIATVTPAIVQACTQDKQANFKDKVKGEFDKIKKDM",binds
2,"HdeA mutant with 19F probe incorporated at site 35 (natural protein, 5-fluorotryptophan at 35) ADAQKAADNKKPVNSFTCEDFLAVDESFQPTAVGWAEALNNKDKPEDAVLDVQGIATVTPAIVQACTQDKQANFKDKVKGEFDKIKKDM",binds
3,"HdeA mutant with 19F probe incorporated at site 78 (natural protein, 5-fluorotryptophan at 78) ADAQKAADNKKPVNSFTCEDFLAVDESFQPTAVGFAEALNNKDKPEDAVLDVQGIATVTPAIVQACTQDKQANFKDKWKGEFDKIKKDM",binds
4,"HdeA mutant with 19F probe incorporated at site 7 (natural protein, 5-fluorotryptophan at 7) ADAQKAWDNKKPVNSFTCEDFLAVDESFQPTAVGFAEALNNKDKPEDAVLDVQGIATVTPAIVQACTQDKQANFKDKVKGEFDKIKKDM",binds
5,"HdeA mutant with 19F probe incorporated at site 55 (natural protein, 5-fluorotryptophan at 55) ADAQKAADNKKPVNSFTCEDFLAVDESFQPTAVGFAEALNNKDKPEDAVLDVQGWATVTPAIVQACTQDKQANFKDKVKGEFDKIKKDM",binds
6,"HdeA mutant with 19F probe incorporated at site 63 (natural protein, 5-fluorotryptophan at 63) ADAQKAADNKKPVNSFTCEDFLAVDESFQPTAVGFAEALNNKDKPEDAVLDVQGIATVTPAIWQACTQDKQANFKDKVKGEFDKIKKDM",binds
7,"HdeA mutant with 19F probe incorporated at site 24 (natural protein, 5-fluorotryptophan at 24) ADAQKAADNKKPVNSFTCEDFLAWDESFQPTAVGFAEALNNKDKPEDAVLDVQGIATVTPAIVQACTQDKQANFKDKVKGEFDKIKKDM",binds
8,"HdeA mutant with 19F probe incorporated at site 49 (natural protein, 5-fluorotryptophan at 49) ADAQKAADNKKPVNSFTCEDFLAVDESFQPTAVGFAEALNNKDKPEDAWLDVQGIATVTPAIVQACTQDKQANFKDKVKGEFDKIKKDM",binds

# Molecular target: T1, MalE
# Assay: NMR
row,Binder,binding result
1,"HdeA-16-fluoro (natural protein, 5-fluorotryptophan at 16) ADAQKAADNKKPVNSWTCEDFLAVDESFQPTAVGFAEALNNKDKPEDAVLDVQGIATVTPAIVQACTQDKQANFKDKVKGEFDKIKKDM",binds
2,HdeA-F28W mutant (natural protein) ADAQKAADNKKPVNSWTCEDFLAVDESWQPTAVGFAEALNNKDKPEDAVLDVQGIATVTPAIVQACTQDKQANFKDKVKGEWDKIKKDM,binds
3,"HdeA-82-fluoro (natural protein, 5-fluorotryptophan at 82) ADAQKAADNKKPVNSFTCEDFLAVDESFQPTAVGFAEALNNKDKPEDAVLDVQGIATVTPAIVQACTQDKQANFKDKVKGEWDKIKKDM",binds
